The values that follow come from patent US20100304465.

The series addresses delta-plasminogen.

Chain of delta-plasminogen (chain, as listed by the source mutant): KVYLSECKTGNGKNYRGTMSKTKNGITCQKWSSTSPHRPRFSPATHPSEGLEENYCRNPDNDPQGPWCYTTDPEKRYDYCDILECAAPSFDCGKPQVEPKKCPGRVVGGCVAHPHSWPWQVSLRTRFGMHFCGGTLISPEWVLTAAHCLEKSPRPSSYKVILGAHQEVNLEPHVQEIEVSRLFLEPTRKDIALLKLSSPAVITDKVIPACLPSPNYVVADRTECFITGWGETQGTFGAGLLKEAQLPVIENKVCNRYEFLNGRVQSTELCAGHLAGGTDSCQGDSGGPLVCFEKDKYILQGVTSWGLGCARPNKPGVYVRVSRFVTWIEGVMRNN

B1: tissue Plasminogen Activator (protein)
chain: SYQVICRDEKTQMIYQQHQSWLRPVLRSNRVEYCWCNSGRAQCHSVPVKSCSEPRCFNGGTCQQALYFSDFVCQCPEGFAGKCCEIDTRATCYEDQGISYRGTWSTAESGAECTNWNSSALAQKPYSGRRPDAIRLGLGNHNYCRNPDRDSKPWCYVFKAGKYSSEFCSTPACSEGNSDCYFGNGSAYRGTHSLTESGASCLPWNSMILIGKVYTAQNPSAQALGLGKHNYCRNPDGDAKPWCHVLKNRRLTWEYCDVPSCSTCGLRQYSQPQFRIKGGLFADIASHPWQAAIFAKHRRSPGERFLCGGILISSCWILSAAHCFQERFPPHHLTVILGRTYRVVPGEEEQKFEVEKYIVHKEFDDDTYDNDIALLQLKSDSSRCAQESSVVRTVCLPPADLQLPDWTECELSGYGKHEALSPFYSERLKEAHVRLYPSSRCTSQHLLNRTVTDNMLCAGDTRSGGPQANLHDACQGDSGGPLVCLNDGRMTLVGIISWGLGCGQKDVPGVYTKVTNYLDWIRDNMRP
As to B1, the “conversion of one-chain delta-plasminogen into two-chain delta-plasmin (reduced SDS-PAGE)” value was “delta-plasminogen indeed can be activated by all three plasminogen activators”.
